Publication PMC6472409, “Dishevelled-3 conformation dynamics analyzed by FRET-based biosensors reveals a key role of casein kinase 1” (Nature Communications, 2019)

Experiments:
[1] = test system: DVL3 membrane recruitment by FZD6 in HEK293 cells; assay: FZD6-dependent membrane recruitment of DVL3, immunofluorescence; format: cell-based, human; design: key to Non-recruited (DVL3 membrane recruitment): number of cells out of 100 positive cells scored; conditions: Fig 8c
Source text: First, we analyzed the preferred subcellular localization of DVL3 (as introduced in Fig. 2c)[10],[14]. […] Next, we investigated if DVL3 conformation correlates with the capacity of DVL3 to be recruited by FZD6, a key Wnt receptor, to the plasma membrane. For this purpose, we co-expressed FZD6 and analyzed membrane recruitment of DVL3 in FZD6-positive cells by immunofluorescence. Individual cells were categorized as: not recruited (Fig. 8b, no DVL3 in the membrane), partially recruited (clear membrane as well as cytoplasmic localization), and fully recruited (predominantly plasma membrane localization, Fig. 8c, left). […] In the last readout we analyzed the capacity of DVL3 to activate downstream Wnt/β-catenin pathway monitored by TopFlash reporter assay (Fig. 8d). […] On the other hand, under conditions that favor the open conformation both activation as well as inhibition of the Wnt/β-catenin pathway was evident.
For immunofluorescence, cells were seeded (40,000 per well) on 24-well plates with gelatin-coated coverslips and transfected, as indicated, with 0.1 μg of each corresponding plasmid (0.3 μg of mCherry-FZD6) for 6 h. For western blotting and Dual Luciferase TopFlash/Renilla Reporter Assay, cells were seeded (60,000 per well) directly on 24-well plates with 0.1 μg of each corresponding plasmid (if not indicated otherwise) for 6 h. For coimmunoprecipitation, cells were seeded (4.4 × 10^6) on 10-cm dishes and transfected with 1 μg of each corresponding plasmid. The next day after seeding, cells were transfected using polyethyleneimine (PEI) in a stoichiometry of 6 μl of PEI per 1 μg of DNA for 6 h and were harvested 24 h after transfection. The following plasmids used in HEK293 cells have been described previously: FLAG-DVL3 wt[47], CK1ϵ wt[48], mCherry-FZD6 (ref. [37]), and dominant-negative CK1ϵ P3 (ref. [33]). The ECFP-DVL3 wt plasmid was made by Gateway Technology (via LR recombination according to the manufacturer’s instructions; Thermo Fisher Scientific, #11791020) from the donor plasmid pDONR221 DVL3 (DNASU, #FLH178665.01x) and the destination plasmid pdECFP (LMBP, #4548). The HA-DVL3 wt plasmid was made by Gateway Technology from the donor plasmid pDONR221 DVL3 (DNASU, #FLH178665.01x) and the destination plasmid pcDNA3.1 N-term HA (gift from Erich Nigg).
Cells were seeded on gelatin-coated coverslips in 24-well plates and were transfected the next day. Cells were fixed 24 h later in fresh 4% paraformaldehyde, permeabilized with 0.5% Triton X-100, blocked with PBS/BSA/Triton/Azide buffer (PBTA) [3% (wt/vol) BSA, 0.25% Triton, 0.01% NaN3] for 1 h, and incubated overnight with primary antibodies (in dilution 1:500) in PBTA at 4 °C. The next day, the coverslips were washed in PBS and incubated with secondary antibodies conjugated to Alexa Fluor 488 (Invitrogen A11001) or/and Alexa Fluor 594 (Invitrogen A11058) (all in dilution 1:1000), washed with PBS [in case of samples containing FLAG-DVL3 WT and derived variants stained with DAPI (1:5000)], and all coverslips were mounted on microscopic slides. Cells were then visualized on an Olympus IX51 fluorescent microscope using ×40 air or ×100 oil objectives and/or an Olympus Fluoview 500 confocal laser scanning microscope IX71 using ×100 oil objective. One hundred positive cells per experiment (n = 3) were analyzed and scored according to their phenotype into two/three categories (punctae/even); or non-recruited/partially/fully recruited for FZD6-dependent recruitment of DVL3. The antibodies used were as follows: anti-FLAG M2 (Sigma-Aldrich, #F1804), anti-DVL3 (Santa Cruz, #sc-8027), anti-CK1ɛ (Santa Cruz, #sc-6471), anti-RFP (Chromotek, #5h9) and anti-GFP (Fitzgerald, #20R-GR-011).

[2] = test system: Wnt/β-catenin pathway; assay: Dual Luciferase TopFlash/Renilla Reporter Assay; format: cell-based, human; conditions: Fig 8d
Procedure: Cells were transfected 24 h after seeding with 0.1 μg of Super8X TopFlash construct, 0.1 μg of Renilla luciferase construct, and 0.1 μg of corresponding plasmids per well for 6 h in a 24-well plate. As for the ECFP-DVL3 FIII wt stable cell lines, transfection was followed by 4 h induction of tetracycline (1 µg/ml) and 8 h treatment of CM:DMEM (1:1 ratio). For performing this assay, Promega Dual Luciferase assay kit (Promega, #E1910) was used according to the manufacturer’s instructions. Luminescence was measured by a Hidex Bioscan Plate Chameleon Luminometer. Results are depicted as the ratio of TopFlash and Renilla signal (TopFlash fold induction), which was normalized for each experiment to certain control column (normalized TopFlash fold induction). Data were analyzed by MS Excel 2007 and GraphPad Prism 6 and results were shown as the means ± S.D. (number of experiments indicated ad hoc).

| TopFlash relative to DVL3 wt (= 1) ([2]; replicate of grid row r4) | TopFlash relative to DVL3 wt (= 1) ([2]; replicate of grid row r5) | TopFlash relative to DVL3 wt (= 1) ([2]; replicate of grid row r6) | TopFlash relative to DVL3 wt (= 1) ([2]; replicate of grid row r7) | TopFlash relative to DVL3 wt (= 1) ([2]; replicate of grid row r8) | TopFlash relative to DVL3 wt (= 1) ([2]; replicate of grid row r9) | TopFlash relative to DVL3 wt (= 1) ([2]; replicate of grid row r10) | TopFlash relative to DVL3 wt (= 1) ([2]; replicate of grid row r11) | TopFlash relative to DVL3 wt (= 1) ([2]; replicate of grid row r12) | TopFlash relative to DVL3 wt (= 1) ([2]; replicate of grid row r13) | TopFlash relative to DVL3 wt (= 1) ([2]; replicate of grid row r14) | Molecule | Non-recruited (DVL3 membrane recruitment) ([1]; exp1) | Partially recruited (DVL3 membrane recruitment) ([1]; exp1) | Fully recruited (DVL3 membrane recruitment) ([1]; exp2) | Non-recruited (DVL3 membrane recruitment) ([1]; exp2) | Partially recruited (DVL3 membrane recruitment) ([1]; exp2) | Fully recruited (DVL3 membrane recruitment) ([1]; exp3) | Non-recruited (DVL3 membrane recruitment) ([1]; exp3) | Partially recruited (DVL3 membrane recruitment) ([1]; exp3) | Fully recruited (DVL3 membrane recruitment) ([1]; exp1) |
| --- | --- | --- | --- | --- | --- | --- | --- | --- | --- | --- | --- | --- | --- | --- | --- | --- | --- | --- | --- | --- |
| 0.2512 | 0.4095 | 0.2391 | 0.3021 | 0.4946 | 0.4126 | 0.6059 | 0.4276 | 0.421 | 0.43 | 0.3266 | DVL3 S268A/S311A (protein, UniProt Q92997 1-716, looked up, variant S268A S311A) Segment polarity protein …: MGETKIIYHLDGQETPYLVKLPLPAERVTLADFKGVLQRPSYKFFFKSMDDDFGVVKEEISDDNAKLPCFNGRVVSWLVSAEGSHPDPAPFCADNPSELPPPMERTGGIGDSRPPSFHPHAGGGSQENLDNDTETDSLVSAQRERPRRRDGPEHATRLNGTAKGERRREPGGYDSSSTLMSSELETTSFFDSDEDDSTSRFSSSTEQSSASRLMRRHKRRRRKQKVSRIERSSSFSSITDSTMSLNIITVTLNMEKYNFLGISIVGQANERGDGGIYIGSIMKGGAVAADGRIEPGDMLLQVNEINFENMANDDAVRVLREIVHKPGPITLTVAKCWDPSPRGCFTLPRSEPIRPIDPAAWVSHTAAMTGTFPAYGMSPSLSTITSTSSSITSSIPDTERLDDFHLSIHSDMAAIVKAMASPESGLEVRDRMWLKITIPNAFIGSDVVDWLYHNVEGFTDRREARKYASNLLKAGFIRHTVNKITFSEQCYYIFGDLCGNMANLSLHDHDGSSGASDQDTLAPLPHPGAAPWPMAFPYQYPPPPHPYNPHPGFPELGYSYGGGSASSQHSEGSRSSGSNRSGSDRRKEKDPKAGDSKSGGSGSESDHTTRSSLRGPRERAPSERSGPAASEHSHRSHHSLASSLRSHHTHPSYGPPGVPPLYGPPMLMMPPPPAAMGPPGAPPGRDLASVPPELTASRQSFRMAMGNPSEFFVDVM | 79 | 19 | 11 | 54 | 35 | 16 | 68 | 16 | – |
| 0.8175 | 1.687 | 1.081 | 0.9973 | 0.619 | 0.5939 | 0.8497 | 1.052 | 1.009 | 1.108 | 1.265 | DVL3 S268E/S311E (protein, UniProt Q92997 1-716, looked up, variant S268E S311E) Segment polarity protein …: MGETKIIYHLDGQETPYLVKLPLPAERVTLADFKGVLQRPSYKFFFKSMDDDFGVVKEEISDDNAKLPCFNGRVVSWLVSAEGSHPDPAPFCADNPSELPPPMERTGGIGDSRPPSFHPHAGGGSQENLDNDTETDSLVSAQRERPRRRDGPEHATRLNGTAKGERRREPGGYDSSSTLMSSELETTSFFDSDEDDSTSRFSSSTEQSSASRLMRRHKRRRRKQKVSRIERSSSFSSITDSTMSLNIITVTLNMEKYNFLGISIVGQENERGDGGIYIGSIMKGGAVAADGRIEPGDMLLQVNEINFENMENDDAVRVLREIVHKPGPITLTVAKCWDPSPRGCFTLPRSEPIRPIDPAAWVSHTAAMTGTFPAYGMSPSLSTITSTSSSITSSIPDTERLDDFHLSIHSDMAAIVKAMASPESGLEVRDRMWLKITIPNAFIGSDVVDWLYHNVEGFTDRREARKYASNLLKAGFIRHTVNKITFSEQCYYIFGDLCGNMANLSLHDHDGSSGASDQDTLAPLPHPGAAPWPMAFPYQYPPPPHPYNPHPGFPELGYSYGGGSASSQHSEGSRSSGSNRSGSDRRKEKDPKAGDSKSGGSGSESDHTTRSSLRGPRERAPSERSGPAASEHSHRSHHSLASSLRSHHTHPSYGPPGVPPLYGPPMLMMPPPPAAMGPPGAPPGRDLASVPPELTASRQSFRMAMGNPSEFFVDVM | 52 | 37 | 20 | 49 | 31 | 10 | 60 | 30 | 11 |
